According to the RNAGym collection of RNA variant scans (doi:10.1073/pnas.2313332121):

B1: TPR t1 (parent)
chain: GACCAAUCUGCCCUCAGAGCUCGAGAACAUCUUCGGAUGCAGAGGAGGCAGGCUUCGGUGGCGCGAUAGCGCCAACGUCCUCAACCUCCAAUGCAUCCCACCACAUGAUGAUGCCUGAAGAGCCUUGGUUUUUUG

Variants of: B1
Experiment: polymerase ribozyme fitness, log enrichment relative to wild type (log ratio); higher = more active; in vitro selection for triplet polymerase activity
How it was run: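 Only genotypes with ≥10 input reads and ≥1 read per output were kept after Illumina sequencing of input and output libraries. These libraries were PCR-built, transcribed mutants of each subunit of a heterodimeric triplet polymerase ribozyme, each put through one triplicate in vitro selection round with frozen incubation at −7 °C, gel excision of extended constructs, streptavidin-bead capture and RT-PCR. Fitness is a logarithmic ratio of genotype enrichment to wild-type enrichment, from inverse-variance-weighted replicate averages, with the logarithm in base 2.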

Variant | polymerase ribozyme fitness (log ratio)
C53U C56A | -0.566
C53U A66G U112A | -0.539
G51A U55G A66U U112A | -6.46
G52A C53U C114U | -2.38
G52U C56A A66U C102A | -6.29
C53U G120A U130A | 0.491
C53U U133A | -0.343
C53G U92G A105U | -6.44
C53U C80U | -0.665
C53A G71U G128C | -2.77
U54C A118G | -0.7
C53G C101G | -1.65
C53A U55A C88U C89U | -0.643
C53G C72A C82G | -0.867
G52U C73G U112A G120A C124A U126A | -0.0832
C53A C99U | -4.03
G51U A66U A111C | -6.21
G51U G63A G117U | -5.99
C53G G117C | -3.47
G51A C124U | -1.14
C53A C62G A108G | -3.91
G51A G57C U59C U96G U106A A118G | -5.28
C53U C70U A74G | -3.92
G52A G69U C79G U87A A90U U116A | -3.3

Variant | polymerase ribozyme fitness (log ratio)
C53U U92A G113A G117A C124A | -5.57
C53U C97U | -0.844
C53A U54A C56U C101U | 0.471
G52A G93A U130G | -1.22
G51C C53U C56U C89G U112G | -5.96
G51U G71C U78C C114A | -7.09
C53A A74U U125A | -1.05
G52A G60C C70U U109A | -5.53
U54G A91C G113U A121C | -2.85
C53U C72U C82G C123G | -0.45
C53G C80G C115A | -2.69
C53G G69C | -0.98
G52U C88U C98A G120U | -5.88
C53U G71U U81A C123U G135A | -0.21
C53U C79G | -1.2
C53A C88U C104U | 0.665
G52C C56G G71U | -3.4
C53U G107U | -4.06
C53U U55G | -0.16
C53U C70A A84C A100U | -3.17
U54A C56U G93A | 0.304
G51U G120A | -2.64
G51U G93A | -4.12
G51A C64U A105G C115G | -8.49

Variant | polymerase ribozyme fitness (log ratio)
G51C C56U G110A | -5.23
G51A G117C | -5.64
C53U C72A A91G U132A | 0.186
C53U C56U A91U | -1.65
G52A U87C G117C | -3.1
G51U U78C A111C C123U | -6.69
C53G U112A | 0.666
G52U C73G | -1.11
G51C C56A G93A | -6.3
G51U G52C C80U | -3.13
G51U U78C | -4.43
G52U G69A C94A C104U A118G | -5.65
C53A C56A G77C C89G | -0.889
C53G C62U A119U | -0.561
G52C C72G C104U | -0.739
C53A U130A | 0.226
C53U C62U | -1.01
C53G C86A | -1.75
G52U C73U U129C | -1.39
G51A G122A G135U | -4.44
C53U C85G | -2.01
C53A U78C | -0.332
C53A G135A | 0.127
G51U C101U | -4.07

Variant | polymerase ribozyme fitness (log ratio)
C53G U106G | -2.14
C53G C114A U125C | -2.07
U54C C124U | 1.81
G51A A66U | -5.73
G51U C114U | -5.14
G52U G61A C102U U126C | -3.23
G52A C86G | -0.287
G52A A68G | -3.34
G51A A84G A108C U112G | -8.09
C53A U54A C62U C80A C114A C124G U125A | -6.53
G52U U106G | -3.09
C53U U87A C97A | -5.45
G51U G52U C56A U78A | -3.39
U54C U59C G61U U125A | -6.69
G51A A95C | -3.42
G52U C73U U96G A121G | 1.57
C53U G69U | 0.587
C53U G113U | -1.43
C53A A74U C89U | -0.387
C53U C64U U106A | -1.12
G52U U132A | -0.57
C53U A83C U87C | 0.394
C53G G113A | -1.24
C53G C124U U129A | -0.596

Variant | polymerase ribozyme fitness (log ratio)
C53G U78C U81C U106A | -3.38
C53G U130A | -0.508
U54A G60C G117C | -3.99
U54A C82U G113A | -1.2
C53G C99U | -3.54
G52U U55A A83G U106A C115U | -5.1
C53A G71A C85A | -4.06
G52C G120U | -0.715
G52C G120C | -0.0985
G51C C73G | -4.22
U54A U81G G120A | -3.57
C53U G69U C88G G110C C115A A121C C124G | -2.79
G51U C62G C124G | -5.32
C53U A74C | -0.315
G51C A111G | -4.71
U54C C101G | -1
G52A U116C | -0.22
U54A U116G | -1.91
G51U G77C | -1.93
G51A G120U | -2.59
G51A U96G | -3.85
G51A C62U C124U | -1.17
U54A C70G C88U | -3.24
U54A U59G | -0.218

Variant | polymerase ribozyme fitness (log ratio)
G51U G135U | -4.28
G52A C70U G120A U132A | 0.354
C53G G117A U130C | -1.46
C53A C56U G58A U133G | -0.438
C53G G77C | -0.807
C53G C79A G120C U133A | -4.39
G52A U87C C99U | -3.97
U54A U55G G61A C80U | -0.516
C53A G93A | -0.768
U54C G93C G117A | -2.18
G51C U78C | -4.89
C53A C70U G117A A121C | -1.08
G52A C56A U106A | -1.08
G52A A74U | -0.719
A50U U59A G60C C80G C88U C123U | -1.82
G51U C62A G110C | -8.04
C53U U78C C124G | 1.86
G51A A68G C123G | -4.37
G52U A121C | 1.02
G52C C114U G127U U133A | -6.16
U54A U106A C124A U129C | 0.971
C53A G69A C124A | -0.263
C53U U126C | -1.07
U54A C98G U112C | -3.86

Variant | polymerase ribozyme fitness (log ratio)
G51U C56A G63C C98U C99U C124A U131G | -7.53
U54A C64U A105U | -2.69
C53G C86A A118G | -1.38
G52C G71U C73U C104U G120C | -2.42
G52C C56U U78G G128C | -2.87
G52U C62U C82A C102U C123G | -2.65
G52U G120C | -0.122
G52U G120A | -0.091
C53G G120U | -0.149
G52A A84U C101U U106G U132A | -1.69
U54C C73U A83U G113U U134G | -2.89
G52U C123A | -0.303
G51A C70G | -6.9
G52A G120A | 0.47
G52U G69C C73A | -2.55
G52A C62A C123A | -1.42
C53A G63U U81G A83U G120C | -3.85
C53A G60A A100U G120C C123G | -1.07
U54C C86G C88A C101U U129C | -3.66
C53U G71A | -0.671
G51A G60U | -1.77
G52U G93A C114G | -4.8
G52A U130C | -0.159
